Measurements taken from PMC9700037, “Inflammasome sensor NLRP1 disease variant M1184V promotes autoproteolysis and DPP9 complex formation by stabilizing the FIIND domain” (The Journal of Biological Chemistry, 2022).

Molecular target: the molecule itself
Test: SEC; purified full-length MBP-NLRP1, Superose 6 increase (10/300) GL, 0.5 ml/min, buffer A (25 mM Hepes pH 7.5, 150 mM NaCl, 0.5 mM TCEP, 10% glycerol); fractions checked by SDS-PAGE

B1: MBP-NLRP1 M1184V (full length) (natural protein, human, UniProt Q9C000 1-1473, looked up)
chain: MAGGAWGRLACYLEFLKKEELKEFQLLLANKAHSRSSSGETPAQPEKTSGMEVASYLVAQYGEQRAWDLALHTWEQMGLRSLCAQAQEGAGHSPSFPYSPSEPHLGSPSQPTSTAVLMPWIHELPAGCTQGSERRVLRQLPDTSGRRWREISASLLYQALPSSPDHESPSQESPNAPTSTAVLGSWGSPPQPSLAPREQEAPGTQWPLDETSGIYYTEIREREREKSEKGRPPWAAVVGTPPQAHTSLQPHHHPWEPSVRESLCSTWPWKNEDFNQKFTQLLLLQRPHPRSQDPLVKRSWPDYVEENRGHLIEIRDLFGPGLDTQEPRIVILQGAAGIGKSTLARQVKEAWGRGQLYGDRFQHVFYFSCRELAQSKVVSLAELIGKDGTATPAPIRQILSRPERLLFILDGVDEPGWVLQEPSSELCLHWSQPQPADALLGSLLGKTILPEASFLITARTTALQNLIPSLEQARWVEVLGFSESSRKEYFYRYFTDERQAIRAFRLVKSNKELWALCLVPWVSWLACTCLMQQMKRKEKLTLTSKTTTTLCLHYLAQALQAQPLGPQLRDLCSLAAEGIWQKKTLFSPDDLRKHGLDGAIISTFLKMGILQEHPIPLSYSFIHLCFQEFFAAMSYVLEDEKGRGKHSNCIIDLEKTLEAYGIHGLFGASTTRFLLGLLSDEGEREMENIFHCRLSQGRNLMQWVPSLQLLLQPHSLESLHCLYETRNKTFLTQVMAHFEEMGMCVETDMELLVCTFCIKFSRHVKKLQLIEGRQHRSTWSPTMVVLFRWVPVTDAYWQILFSVLKVTRNLKELDLSGNSLSHSAVKSLCKTLRRPRCLLETLRLAGCGLTAEDCKDLAFGLRANQTLTELDLSFNVLTDAGAKHLCQRLRQPSCKLQRLQLVSCGLTSDCCQDLASVLSASPSLKELDLQQNNLDDVGVRLLCEGLRHPACKLIRLGLDQTTLSDEMRQELRALEQEKPQLLIFSRRKPSVMTPTEGLDTGEMSNSTSSLKRQRLGSERAASHVAQANLKLLDVSKIFPIAEIAEESSPEVVPVELLCVPSPASQGDLHTKPLGTDDDFWGPTGPVATEVVDKEKNLYRVHFPVAGSYRWPNTGLCFVMREAVTVEIEFCVWDQFLGEINPQHSWMVAGPLLDIKAEPGAVEAVHLPHFVALQGGHVDTSLFQVAHFKEEGMLLEKPARVELHHIVLENPSFSPLGVLLKMIHNALRFIPVTSVVLLYHRVHPEEVTFHLYLIPSDCSIRKAIDDLEMKFQFVRIHKPPPLTPLYMGCRYTVSGSGSGMLEILPKELELCYRSPGEDQLFSEFYVGHLGSGIRLQVKDKKDETLVWEALVKPGDLMPATTLIPPARIAVPSPLDAPQLLHFVDQYREQLIARVTSVEVVLDKLHGQVLSQEQYERVLAENTRPSQMRKLFSLSQSWDRKCKDGLYQALKETHPHLIMELWEKGSKKGLLPLSS
notes: NLRP1, human, isoform 1, residues 1-1473, codon-optimized, natural variant M1184V; More autocleaved between F1212 and S1213 than the wt; source: Sf9 insect cells, purified (MBPTrap, SEC); not shown: MBP, N-terminal, kept
  binding result: binds
